Earlier results, collected in patent publication US6774099B1, “Dishwashing detergent compositions containing mixtures or crystallinity-disrupted surfactants” (The Procter & Gamble Company, priority 1999, dated 2004).

Conditions: enzymes compared at 0.075 to 2.5 mg protein per liter

B1: D96L: D96L lipolytic enzyme variant of the native lipase derived from Humicola lanuginosa (protein, UniProt O59952 23-291, looked up, variant D96L)
Lipase: EVSQDLFNQFNLFAQYSAAAYCGKNNDAPAGTNITCTGNACPEVEKADATFLYSFEDSGVGDVTGFLALDNTNKLIVLSFRGSRSIENWIGNLNFLLKEINDICSGCRGHDGFTSSWRSVADTLRQKVEDAVREHPDYRVVFTGHSLGGALATVAGADLRGNGYDIDVFSYGAPRVGNRAFAEFLTVQTGGTLYRITHTNDIVPRLPPREFGYSHSSPEYWIKSGTLVPVTRNDIVKIEGIDATGGNNQPNIPDIPAHLWYFGLIGTCL
In the case of B1, the “lard stain removal efficiency, factor over the wild-type lipase” value is given as 4.4.
